Consider 23 compounds from patent US11319341B2, “Immune-stimulating soluble doxorubicin-conjugated complex” (Yafei (Shanghai) Biopharmaceutical Co., Ltd., priority 2016, dated 2022).

SMILES strings stand for the structures. Residues, ends and D or L forms follow the SMILES beside them. *: point of attachment. Doxorubicin(3'-N) = COc1cccc2c1C(=O)c1c(O)c3c(c(O)c1C2=O)C[C@@](O)(C(=O)CO)C[C@@H]3O[C@H]1C[C@H](N*)[C@H](O)[C@H](C)O1; Hexanoyl(6-maleimido) = O=C1C=CC(=O)N1CCCCCC(=O)*; Butanoyl(4-maleimido) = O=C1C=CC(=O)N1CCCC(=O)*; Propanoyl(3-maleimido) = O=C1C=CC(=O)N1CCC(=O)*; X1 = O=C1C=CC(=O)N1CCOCCOCCOCCC(=O)*; X2 = O=C1C=CC(=O)N1CCOCCOCCC(=O)*; PEG4 = NCCOCCOCCOCCOCCC(=O)O; PEG3 = NCCOCCOCCOCCC(=O)O; PEG2 = NCCOCCOCCC(=O)O Bounds are passed on as bounds.

A short description of the first data set: Water solubility of freeze-dried compounds in water (observation and HPLC).
Settings: not given
In the case of `COc1cccc2c1C(=O)c1c(O)c3c(c(O)c1C2=O)C[C@@](O)(C(=O)CO)C[C@@H]3O[C@H]1C[C@H](NC(=O)[C@H](CC(C)C)NC(=O)[C@H](CC(N)=O)NC(=O)[C@H](C)NC(=O)[C@H](C)NC(=O)[C@H](CC(=O)O)NC(=O)CCN2C(=O)C=CC2=O)[C@H](O)[C@H](C)O1` [QHL-114] ({Propanoyl(3-maleimido)}-DAANL-{Doxorubicin(3'-N)}), the solubility is more than 15000 µg/mL. In turn, `COc1cccc2c1C(=O)c1c(O)c3c(c(O)c1C2=O)C[C@@](O)(C(=O)CO)C[C@@H]3O[C@H]1C[C@H](NC(=O)[C@H](CC(C)C)NC(=O)[C@H](CC(N)=O)NC(=O)[C@H](C)NC(=O)[C@H](C)NC(=O)[C@H](Cc2c[nH]cn2)NC(=O)CCCCCN2C(=O)C=CC2=O)[C@H](O)[C@H](C)O1` [QHL-137] ({Hexanoyl(6-maleimido)}-HAANL-{Doxorubicin(3'-N)}) displayed a solubility of more than 5000 µg/mL. As for `COc1cccc2c1C(=O)c1c(O)c3c(c(O)c1C2=O)C[C@@](O)(C(=O)CO)C[C@@H]3O[C@H]1C[C@H](NC(=O)[C@H](CC(C)C)NC(=O)[C@H](CC(N)=O)NC(=O)[C@H](C)NC(=O)[C@H](C)NC(=O)[C@H](CC(=O)O)NC(=O)CCOCCOCCOCCOCCNC(=O)CCCN2C(=O)C=CC2=O)[C@H](O)[C@H](C)O1` [QHL-078] ({Butanoyl(4-maleimido)-PEG4}-DAANL-{Doxorubicin(3'-N)}), the solubility is more than 25000 µg/mL. As for `COc1cccc2c1C(=O)c1c(O)c3c(c(O)c1C2=O)C[C@@](O)(C(=O)CO)C[C@@H]3O[C@H]1C[C@H](NC(=O)[C@H](CC(C)C)NC(=O)[C@H](CC(N)=O)NC(=O)[C@H](C)NC(=O)[C@H](C)NC(=O)[C@H](CCCCN)NC(=O)CCCCCN2C(=O)C=CC2=O)[C@H](O)[C@H](C)O1` [QHL-135] ({Hexanoyl(6-maleimido)}-KAANL-{Doxorubicin(3'-N)}), the solubility is more than 5000 µg/mL.

`COc1cccc2c1C(=O)c1c(O)c3c(c(O)c1C2=O)C[C@@](O)(C(=O)CO)C[C@@H]3O[C@H]1C[C@H](NC(=O)[C@H](CC(C)C)NC(=O)[C@H](CC(N)=O)NC(=O)[C@H](C)NC(=O)[C@H](C)NC(=O)[C@H](CCC(=O)O)NC(=O)CCOCCOCCN2C(=O)C=CC2=O)[C@H](O)[C@H](C)O1` [QHL-021] (X2-EAANL-{Doxorubicin(3'-N)}) yielded a solubility of more than 20000 µg/mL. Still for that read-out and setting: with `COc1cccc2c1C(=O)c1c(O)c3c(c(O)c1C2=O)C[C@@](O)(C(=O)CO)C[C@@H]3O[C@H]1C[C@H](NC(=O)[C@H](CC(C)C)NC(=O)[C@H](CC(N)=O)NC(=O)[C@H](C)NC(=O)[C@H](C)NC(=O)CCOCCOCCNC(=O)CCCN2C(=O)C=CC2=O)[C@H](O)[C@H](C)O1` [QHL-099] ({Butanoyl(4-maleimido)-PEG2}-AANL-{Doxorubicin(3'-N)}) the figure was more than 20000 µg/mL; with `COc1cccc2c1C(=O)c1c(O)c3c(c(O)c1C2=O)C[C@@](O)(C(=O)CO)C[C@@H]3O[C@H]1C[C@H](NC(=O)[C@H](CC(C)C)NC(=O)[C@H](CC(N)=O)NC(=O)[C@H](C)NC(=O)[C@H](C)NC(=O)CNC(=O)CCCCCN2C(=O)C=CC2=O)[C@H](O)[C@H](C)O1` [QHL-121] ({Hexanoyl(6-maleimido)}-GAANL-{Doxorubicin(3'-N)}), more than 10000 µg/mL; with `COc1cccc2c1C(=O)c1c(O)c3c(c(O)c1C2=O)C[C@@](O)(C(=O)CO)C[C@@H]3O[C@H]1C[C@H](NC(=O)[C@H](CC(C)C)NC(=O)[C@H](CC(N)=O)NC(=O)[C@H](C)NC(=O)[C@H](C)NC(=O)[C@H](CCC(=O)O)NC(=O)CCOCCOCCOCCOCCNC(=O)CCCN2C(=O)C=CC2=O)[C@H](O)[C@H](C)O1` [QHL-075] ({Butanoyl(4-maleimido)-PEG4}-EAANL-{Doxorubicin(3'-N)}), more than 25000 µg/mL. Regarding `COc1cccc2c1C(=O)c1c(O)c3c(c(O)c1C2=O)C[C@@](O)(C(=O)CO)C[C@@H]3O[C@H]1C[C@H](NC(=O)[C@H](CC(C)C)NC(=O)[C@H](CC(N)=O)NC(=O)[C@H](C)NC(=O)[C@H](C)NC(=O)[C@H](Cc2ccc(O)cc2)NC(=O)CCCCCN2C(=O)C=CC2=O)[C@H](O)[C@H](C)O1` [QHL-132] ({Hexanoyl(6-maleimido)}-YAANL-{Doxorubicin(3'-N)}), the solubility was more than 2000 µg/mL. On the same count and under the same terms, with `COc1cccc2c1C(=O)c1c(O)c3c(c(O)c1C2=O)C[C@@](O)(C(=O)CO)C[C@@H]3O[C@H]1C[C@H](NC(=O)[C@H](CC(C)C)NC(=O)[C@H](CC(N)=O)NC(=O)[C@H](C)NC(=O)[C@H](C)NC(=O)[C@H](CC(=O)O)NC(=O)CCOCCOCCNC(=O)CCCN2C(=O)C=CC2=O)[C@H](O)[C@H](C)O1` [QHL-066] ({Butanoyl(4-maleimido)-PEG2}-DAANL-{Doxorubicin(3'-N)}) the figure was more than 15000 µg/mL; with `COc1cccc2c1C(=O)c1c(O)c3c(c(O)c1C2=O)C[C@@](O)(C(=O)CO)C[C@@H]3O[C@H]1C[C@H](NC(=O)[C@H](CC(C)C)NC(=O)[C@H](CC(N)=O)NC(=O)[C@H](C)NC(=O)[C@H](C)NC(=O)[C@H](CCCNC(=N)N)NC(=O)CCCCCN2C(=O)C=CC2=O)[C@H](O)[C@H](C)O1` [QHL-136] ({Hexanoyl(6-maleimido)}-RAANL-{Doxorubicin(3'-N)}), more than 2000 µg/mL. Consider `COc1cccc2c1C(=O)c1c(O)c3c(c(O)c1C2=O)C[C@@](O)(C(=O)CO)C[C@@H]3O[C@H]1C[C@H](NC(=O)[C@H](CC(C)C)NC(=O)[C@H](CC(N)=O)NC(=O)[C@H](C)NC(=O)[C@H](C)NC(=O)CCOCCOCCOCCOCCNC(=O)CCCN2C(=O)C=CC2=O)[C@H](O)[C@H](C)O1` [QHL-105] ({Butanoyl(4-maleimido)-PEG4}-AANL-{Doxorubicin(3'-N)}), for which the solubility is more than 10000 µg/mL. For `COc1cccc2c1C(=O)c1c(O)c3c(c(O)c1C2=O)C[C@@](O)(C(=O)CO)C[C@@H]3O[C@H]1C[C@H](NC(=O)[C@H](CC(C)C)NC(=O)[C@H](CC(N)=O)NC(=O)[C@H](C)NC(=O)[C@H](C)NC(=O)[C@H](CCC(=O)O)NC(=O)CCOCCOCCOCCN2C(=O)C=CC2=O)[C@H](O)[C@H](C)O1` [QHL-022] (X1-EAANL-{Doxorubicin(3'-N)}), the solubility was more than 20000 µg/mL. On the same count and under the same terms, in the case of `COc1cccc2c1C(=O)c1c(O)c3c(c(O)c1C2=O)C[C@@](O)(C(=O)CO)C[C@@H]3O[C@H]1C[C@H](NC(=O)[C@H](CC(C)C)NC(=O)[C@H](CC(N)=O)NC(=O)[C@H](C)NC(=O)[C@H](C)NC(=O)[C@H](CC(=O)O)NC(=O)CCOCCOCCOCCNC(=O)CCN2C(=O)C=CC2=O)[C@H](O)[C@H](C)O1` [QHL-048] ({Propanoyl(3-maleimido)-PEG3}-DAANL-{Doxorubicin(3'-N)}) it was more than 20000 µg/mL. Still for that read-out and setting: with `COc1cccc2c1C(=O)c1c(O)c3c(c(O)c1C2=O)C[C@@](O)(C(=O)CO)C[C@@H]3O[C@H]1C[C@H](NC(=O)[C@H](CC(C)C)NC(=O)[C@H](CC(N)=O)NC(=O)[C@H](C)NC(=O)[C@H](C)NC(=O)[C@H](CCC(=O)O)NC(=O)CCN2C(=O)C=CC2=O)[C@H](O)[C@H](C)O1` [QHL-111] ({Propanoyl(3-maleimido)}-EAANL-{Doxorubicin(3'-N)}) the figure was more than 10000 µg/mL. In the case of `COc1cccc2c1C(=O)c1c(O)c3c(c(O)c1C2=O)C[C@@](O)(C(=O)CO)C[C@@H]3O[C@H]1C[C@H](NC(=O)[C@H](CC(C)C)NC(=O)[C@H](CC(N)=O)NC(=O)[C@H](C)NC(=O)[C@H](C)NC(=O)[C@H](CO)NC(=O)CCCCCN2C(=O)C=CC2=O)[C@H](O)[C@H](C)O1` [QHL-129] ({Hexanoyl(6-maleimido)}-SAANL-{Doxorubicin(3'-N)}), the solubility was more than 5000 µg/mL. For the compound `COc1cccc2c1C(=O)c1c(O)c3c(c(O)c1C2=O)C[C@@](O)(C(=O)CO)C[C@@H]3O[C@H]1C[C@H](NC(=O)[C@H](CC(C)C)NC(=O)[C@H](CC(N)=O)NC(=O)[C@H](C)NC(=O)[C@H](C)NC(=O)[C@H](CC(=O)O)NC(=O)CCOCCOCCOCCN2C(=O)C=CC2=O)[C@H](O)[C@H](C)O1` [QHL-034] (X1-DAANL-{Doxorubicin(3'-N)}), the solubility is more than 20000 µg/mL. Same read-out and setting: with `COc1cccc2c1C(=O)c1c(O)c3c(c(O)c1C2=O)C[C@@](O)(C(=O)CO)C[C@@H]3O[C@H]1C[C@H](NC(=O)[C@H](CC(C)C)NC(=O)[C@H](CC(N)=O)NC(=O)[C@H](C)NC(=O)[C@H](C)NC(=O)[C@H](C)NC(=O)CCCCCN2C(=O)C=CC2=O)[C@H](O)[C@H](C)O1` [QHL-122] ({Hexanoyl(6-maleimido)}-AAANL-{Doxorubicin(3'-N)}) the figure was more than 10000 µg/mL; with `COc1cccc2c1C(=O)c1c(O)c3c(c(O)c1C2=O)C[C@@](O)(C(=O)CO)C[C@@H]3O[C@H]1C[C@H](NC(=O)[C@H](CC(C)C)NC(=O)[C@H](CC(N)=O)NC(=O)[C@H](C)NC(=O)[C@H](C)NC(=O)[C@H](CCC(=O)O)NC(=O)CCOCCOCCOCCNC(=O)CCCN2C(=O)C=CC2=O)[C@H](O)[C@H](C)O1` [QHL-069] ({Butanoyl(4-maleimido)-PEG3}-EAANL-{Doxorubicin(3'-N)}), more than 25000 µg/mL. For `COc1cccc2c1C(=O)c1c(O)c3c(c(O)c1C2=O)C[C@@](O)(C(=O)CO)C[C@@H]3O[C@H]1C[C@H](NC(=O)[C@H](CC(C)C)NC(=O)[C@H](CC(N)=O)NC(=O)[C@H](C)NC(=O)[C@H](C)NC(=O)[C@H](CS)NC(=O)CCCCCN2C(=O)C=CC2=O)[C@H](O)[C@H](C)O1` [QHL-131] ({Hexanoyl(6-maleimido)}-CAANL-{Doxorubicin(3'-N)}), the solubility was more than 10000 µg/mL. Compound `COc1cccc2c1C(=O)c1c(O)c3c(c(O)c1C2=O)C[C@@](O)(C(=O)CO)C[C@@H]3O[C@H]1C[C@H](NC(=O)[C@H](CC(C)C)NC(=O)[C@H](CC(N)=O)NC(=O)[C@H](C)NC(=O)[C@H](C)NC(=O)[C@H](CC(C)C)NC(=O)CCCCCN2C(=O)C=CC2=O)[C@H](O)[C@H](C)O1` [QHL-124] ({Hexanoyl(6-maleimido)}-LAANL-{Doxorubicin(3'-N)}) had a solubility of more than 5000 µg/mL. Regarding `COc1cccc2c1C(=O)c1c(O)c3c(c(O)c1C2=O)C[C@@](O)(C(=O)CO)C[C@@H]3O[C@H]1C[C@H](NC(=O)[C@H](CC(C)C)NC(=O)[C@H](CC(N)=O)NC(=O)[C@H](C)NC(=O)[C@H](C)NC(=O)CCOCCOCCOCCNC(=O)CCCN2C(=O)C=CC2=O)[C@H](O)[C@H](C)O1` [QHL-102] ({Butanoyl(4-maleimido)-PEG3}-AANL-{Doxorubicin(3'-N)}), the solubility is more than 10000 µg/mL.

The data set is the same for the next values; noted with them: freeze-dried compound dissolved in water; observation and HPLC test (>95%).
`COc1cccc2c1C(=O)c1c(O)c3c(c(O)c1C2=O)C[C@@](O)(C(=O)CO)C[C@@H]3O[C@H]1C[C@H](N)[C@H](O)[C@H](C)O1` [C1: DOX] yielded a solubility of less than 1000 µg/mL.
